In experiment [1] the target is HA-Cdt1 phosphomimetic (2E3D) (human) (UniProt Q9H211). Nature of the experiment: co-IP.
The target in experiment [2] is GFP-tagged Cdt1 deletion fragment 92-410 (human) (UniProt Q9H211). Nature of the experiment: BLI.
Experiment [3] addresses GFP-tagged Cdt1 deletion fragment 410-546 (human) (UniProt Q9H211). Put plainly: BLI. For orientation: In BLI a coated tip is dipped into the sample, and binding shifts an interference pattern.
Experiment [4] addresses GFP-tagged Cdt1 (92-546 a. a.) (human) (UniProt Q9H211). Nature of the experiment: BLI.
The target in another experiment is GFP-Cdt1^2E3D (human) (UniProt Q9H211). Put plainly: BLI.

The text below walks through data of article doi:10.1101/2022.05.05.490787.

Several values for one entry are separate records, joined by “and”; a condition that tells them apart may be missing. Identical values can stand only once.

As for “SKA1 (endogenous) (from UniProt Q96BD8 1-255) (natural protein)”, in experiment [1], the % reduction of co-precipitated Ska1 against Cdt1-WT was 50% and 55%.
“Ska1 complex (analyte of the BLI experiments) (from UniProt Q96BD8;Q8WVK7)”: the dissociation constant (Kd) in experiment [2] is 220 nM; in experiment [3] it was 360 nM; in experiment [4], 70 nM; with GFP-Cdt1^2E3D (human) it was 185 nM.

Usually Kd stands for the free concentration of one partner at which half of the binding sites on the other are occupied at equilibrium, for simple one-to-one binding. Read a high Kd as weaker binding.
